Substrate in data set [1]: CCCC[N+]1(C)[C@@H]2C[C@@H](OC(=O)[C@H](CO)c3ccccc3)C[C@H]1[C@@H]1O[C@@H]12
The data set is described as follows: Uptake in HEK293 cells stably overexpressing mouse OCT1. In kind it is in vitro ADME. Particulars: other: OCT1-mediated uptake, HEK293, 2 min, Michaelis–Menten fit; pH 7.4.

Substrate in data set [2]: CN(C)C(=N)N=C(N)N
Described as above. In kind it is in vitro ADME. To be noted: other: OCT1-mediated uptake, HEK293, 2 min, Michaelis–Menten fit; pH 7.4.

Substrate in data set [3]: O=C(O[C@H]1C[C@H]2CC[C@@H](C1)[N+]21CCCC1)C(O)(c1ccccc1)c1ccccc1
The description is as above. In kind it is in vitro ADME. Particulars: other: OCT1-mediated uptake, HEK293, 2 min, Michaelis–Menten fit; pH 7.4.

Substrate in data set [4]: CC(Cc1ccc(O)cc1)NCC(O)c1cc(O)cc(O)c1
The data set is described as follows: cells, lysate or membranes named. Particulars: HEK293, 2 min, Michaelis–Menten fit, pH 7.4.

Substrate in data set [5]: CCCC[N+]1(C)[C@@H]2C[C@@H](OC(=O)[C@H](CO)c3ccccc3)C[C@H]1[C@@H]1O[C@@H]12
The data set is described as follows: Uptake in HEK293 cells stably overexpressing human OCT1. Particulars: other: OCT1-mediated uptake, HEK293, 2 min, Michaelis–Menten fit; pH 7.4. In kind it is in vitro ADME.

Substrate in data set [6]: O=C(O[C@H]1C[C@H]2CC[C@@H](C1)[N+]21CCCC1)C(O)(c1ccccc1)c1ccccc1
The description is as above. In kind it is in vitro ADME. Particulars: other: OCT1-mediated uptake, HEK293, 2 min, Michaelis–Menten fit; pH 7.4.

Substrate in data set [7]: CCCC[N+]1(C)[C@@H]2C[C@@H](OC(=O)[C@H](CO)c3ccccc3)C[C@H]1[C@@H]1O[C@@H]12
Briefly: Uptake in HEK293 cells stably overexpressing human OCT2. In kind it is in vitro ADME. Particulars: other: OCT2-mediated uptake, HEK293, 2 min, Michaelis–Menten fit; pH 7.4.

Substrate in data set [8]: O=C(O[C@H]1C[C@H]2CC[C@@H](C1)[N+]21CCCC1)C(O)(c1ccccc1)c1ccccc1
The data set is described as above. In kind it is in vitro ADME. Particulars: other: OCT2-mediated uptake, HEK293, 2 min, Michaelis–Menten fit; pH 7.4.

B1: mouse OCT1 (Mus musculus) (protein)
chain: MPTVDDVLEHVGEFGWFQKQAFLLLCLISASLAPIYVGIVFLGFTPDHHCRSPGVAELSQRCGWSPAEELNYTVPGLGSAGEASFLSQCMKYEVDWNQSTLDCVDPLSSLAANRSHLPLSPCEHGWVYDTPGSSIVTEFNLVCGDAWKVDLFQSCVNLGFFLGSLVVGYIADRFGRKLCLLVTTLVTSLSGVLTAVAPDYTSMLLFRLLQGMVSKGSWVSGYTLITEFVGSGYRRTTAILYQVAFTVGLVGLAGVAYAIPDWRWLQLAVSLPTFLFLLYYWFVPESPRWLLSQKRTTQAVRIMEQIAQKNRKVPPADLKMMCLEEDASERRSPSFADLFRTPSLRKHTLILMYLWFSCAVLYQGLIMHVGATGANLYLDFFYSSLVEFPAAFIILVTIDRIGRIYPIAASNLVAGAACLLMIFIPHELHWLNVTLACLGRMGATIVLQMVCLVNAELYPTFIRNLGMMVCSALCDLGGIFTPFMVFRLMEVWQALPLILFGVLGLSAGAVTLLLPETKGVALPETIEEAENLGRRKSKAKENTIYLQVQTGKSPHT
notes: expressed in transfected cells; host or cells: HEK293 (Flp-In system)
In general, Km refers to the concentration of substrate that gives half-maximal velocity. Usually Vmax stands for the top rate of the reaction or transport when substrate is in excess. B1: the Km is on record as 6.60 ± 1.13 µM in data set [1], 298 ± 46.9 µM in data set [2], 1.92 ± 0.85 µM in data set [3] and 10.7 ± 1.09 µM in data set [4] (other: OCT1-mediated uptake). Besides, the Vmax in data set [1] was 0.000778 µmol/min/mg; in data set [2] it was 0.0109 ± 0.00125 µmol/min/mg; in data set [3], 0.000255 µmol/min/mg. Further, the Vmax/Km in data set [1] was found to be 131 µL/min/mg; in data set [2], 38.7 µL/min/mg; in data set [3], 180 µL/min/mg.

B2: human OCT1 (Homo sapiens) (protein)
chain: MPTVDDILEQVGESGWFQKQAFLILCLLSAAFAPICVGIVFLGFTPDHHCQSPGVAELSQRCGWSPAEELNYTVPGLGPAGEAFLGQCRRYEVDWNQSALSCVDPLASLATNRSHLPLGPCQDGWVYDTPGSSIVTEFNLVCADSWKLDLFQSCLNAGFLFGSLGVGYFADRFGRKLCLLGTVLVNAVSGVLMAFSPNYMSMLLFRLLQGLVSKGNWMAGYTLITEFVGSGSRRTVAIMYQMAFTVGLVALTGLAYALPHWRWLQLAVSLPTFLFLLYYWCVPESPRWLLSQKRNTEAIKIMDHIAQKNGKLPPADLKMLSLEEDVTEKLSPSFADLFRTPRLRKRTFILMYLWFTDSVLYQGLILHMGATSGNLYLDFLYSALVEIPGAFIALITIDRVGRIYPMAMSNLLAGAACLVMIFISPDLHWLNIIIMCVGRMGITIAIQMICLVNAELYPTFVRNLGVMVCSSLCDIGGIITPFIVFRLREVWQALPLILFAVLGLLAAGVTLLLPETKGVALPETMKDAENLGRKAKPKENTIYLKVQTSEPSGT
notes: as for B1
Consider B2, for which the Km in data set [4] (other: OCT1-mediated uptake) stood at 1.19 ± 0.09 µM. Further, in data set [5], the Km is given as 15.0 ± 1.67 µM, the Vmax is 0.00125 µmol/min/mg and the Vmax/Km is 84.4 µL/min/mg. Further, in data set [6], the Km is listed as 13.3 ± 1.58 µM, the Vmax came out at 0.0015 µmol/min/mg and the Vmax/Km turned out to be 117 µL/min/mg.

B3: human OCT2 (Homo sapiens) (protein)
chain: MPTTVDDVLEHGGEFHFFQKQMFFLLALLSATFAPIYVGIVFLGFTPDHRCRSPGVAELSLRCGWSPAEELNYTVPGPGPAGEASPRQCRRYEVDWNQSTFDCVDPLASLDTNRSRLPLGPCRDGWVYETPGSSIVTEFNLVCANSWMLDLFQSSVNVGFFIGSMSIGYIADRFGRKLCLLTTVLINAAAGVLMAISPTYTWMLIFRLIQGLVSKAGWLIGYILITEFVGRRYRRTVGIFYQVAYTVGLLVLAGVAYALPHWRWLQFTVSLPNFFFLLYYWCIPESPRWLISQNKNAEAMRIIKHIAKKNGKSLPASLQRLRLEEETGKKLNPSFLDLVRTPQIRKHTMILMYNWFTSSVLYQGLIMHMGLAGDNIYLDFFYSALVEFPAAFMIILTIDRIGRRYPWAASNMVAGAACLASVFIPGDLQWLKIIISCLGRMGITMAYEIVCLVNAELYPTFIRNLGVHICSSMCDIGGIITPFLVYRLTNIWLELPLMVFGVLGLVAGGLVLLLPETKGKALPETIEEAENMQRPRKNKEKMIYLQVQKLDIPLN
notes: as for B1
For B3, in data set [7], the Km amounted to 7.62 ± 0.85 µM, the maximal velocity (Vmax) was 0.000616 µmol/min/mg and the Vmax/Km was 81.6 µL/min/mg. Also, in data set [8], the Km came to 0.49 ± 0.15 µM, the Vmax worked out at 0.000119 µmol/min/mg and the Vmax/Km was 278 µL/min/mg. Besides, the Michaelis constant (Km) in data set [4] (other: OCT2-mediated uptake) came out at 8.81 ± 0.55 µM.

The values are drawn from article PMC9102066, “Cloning and Functional Characterization of Dog OCT1 and OCT2: Another Step in Exploring Species Differences in Organic Cation Transporters” (International Journal of Molecular Sciences, 2022).
